Measurements from the DeepSol protein solubility set.

experiment: soluble on expression in E. coli; label from the status in PepcDB or PDB records

Sequence | soluble on expression in E. coli
MAPASILCCDTDNRRPQMKLTGGCYCGALRYEAEGEPMLKAQCHCRACQSYSGGAPNLFMVMPAAGFRYVKGTPKSFRLEDRPDRVTRDFCATCGTGVASHRPGLPAVILKIGTLDDPALFKGPRAAVFAAEKQAFHIIPEGVHAFDGLPPT | not soluble
VVLSTAFSQMFGIDYPIVSAPMDLIAGGELAAAVSGAGGLGLIGGGYGDRDWLARQFDLAAGAPVGCGFITWSLARQPQLLDLALQYEPVAVMLSFGDPAVFADAIKSAGTRLVCQIQNRTQAERALQVGADVLVAQGTEAGGHGHGPRSTLTLVPEIVDLVTARGTDIPVIAAGGIADGRGLAAALMLGAAGVLVGTRFYATVEALSTPQARDPLLAATGDDMCRTTIYDQLRRYPWPQGHTMSVLSNALTDQFEDTELDILHREEAMARYWRAVAARDYSIANVTAGQAAGLVNAVLPAADVITGMAQQAARTLTAMRAV | not soluble
MGSDKIHHHHHHMPPPVRVNWPRMRTTRRQTVTTWVGNVPVGSSHPIVVQSMTNTDTANAEATALQVAQLARAGSEIVRVTVNTREAAAALPEIVARLHDLGLDVPLVGDFHYNGHLLLREYPETARLLAKYRINPGNVGAGQHHDANFATMIEVAKTYGKPVRIGVNWGSLDQQVLARLMDENARRGSPKSGTDVMIDAMVTSALESAAYAEGLGLPHDRIIISVKVSSAPELWQVYRQLAPLCDYPLHLGLTEAGMGMKGMVASSVALAPLLSEGIGDTIRVSLTPEPGAPRKLEVEVAQQILQSLGLRQFLPQVTSCPGCGRTTSTFFQELARKIQDYIRDAMPEWKAKYPGVEDMQVAVMGCIVNGPGESKHANIGISLPGTGEDPRAPVYQDGKLLTTLKGPRIAEDFQELLEKYVEERYGHKSAHTTVQE | not soluble
SLVVNRSWMRCWSITALRADHSVKICLIDETGAGDGALSVLAARWGLEHDEDNLMALVLTPEHLELRKRDEPKLGGIFVDFVGGAMAHRRKFGGGRGEAVAKAVGIKGDYLPDVVDATAGLGRDAFVLASVGCRVRMLERNPVVAALLDDGLARGYADAEIGGWLQERLQLIHASSLTALTDITPRPQVVYLDPMFPHKQKSALVKKEMRVFQSLVGPDLDADGLLEPARLLATKRVVVKRPDYAPPLANVATPNAVVTKGHRFDIYAGTPV | soluble
MQRLTSARLFKGAFNVGQKRATNASAGAAAVASRPQALPQPHQASTMTPPAAAPAVAAPQASLTRSASLVAPPSTSAPPSGAAPPMPKKKIIRRIIKRKKASAGVATGEAVHRAAAEAVSQTAAPAAPSEPAFAAATGAQPPRRGLAMLNAIRKHPEGSIEEQPQVVTEKHSEEMATAQEQYHEHTHDRHPAIQETEEAHEHHYHHDAASEKVTSSRYNAASAEAETDATGGSDAMDDATSNGSSSSRKTAMVKGYRIDEVGALCSSSDAMFARRLPSGGCQFFAWPGTPLSVASSAIVSMPDTIRTVHAVFGRAGTPIDIVMDIDAQVPQEYWTMSKIRVYQRKVLDDVLTPLKEEIEKIGEEIETQVVLQSPNLKKASFHVHTRLKDAAFADFYSLHGFLFRFQDRLPNVDLQIYRPNGMLRMFSCMKENRTSAIIVFDESKWNIGFPGGKVSDEQAALHSICVRDPSTFSRVLTFEAPRQSNMPAYGGSKGACGDGSEGALRPPQVLLPLTEKEAIESASRWLRQATEVEVGEWRTWIGLGLCAYRVAYHFRNARNLPRPAMAEMLDAWTEASRKCPLKFHSGECEARWAAFDPEKLGSQSDWWSAYKRLGRLEVPMREAMEREAAFAARCASRYQAAPAAEVPFAPEPPQSAAAVGSVTSASRKMKQQKKAFRRA | not soluble
MGCAGSTQSQADGSVKKIRKPKPWKHTQPITKAELMKLREEFWDTAPHYGGRKEIWDALRAAAEADISLAQAIVDSAGVIVQNTDLTVCYDERGAKYELPKYVLSEPTNLEEEN | not soluble
MSLKAVIFDLDGVITDTAEYHFLAWKHIAEQIDIPFDRDMNERLKGISREESLESILIFGGAETKYTNAEKQELMHRKNRDYQMLISKLTPEDLLPGIGRLLCQLKNENIKIGLASSSRNAPKILRRLAIIDDFHAIVDPTTLAKGKPDPDIFLTAAAMLDVSPADCAAIEDAEAGISAIKSAGMFAVGVGQGQPMLGADLVVRQTSDLTLELLHEEWEQYRIRESEGHHHHHH | soluble
LSSPADSYNEGVKLQPQEISPPPTANLDRSNDKVYENVTGLVKAVIEMSSKIQPAPPEEYVPMVKEVGLALRTLLATVDETIPLLPASTHREIEMAQKLLNSDLGELINKMKLAQQYVMTSLQQEYKKQMLTAAHALAVDAKNLLDVIDQARLKMLGQTRPH | soluble
MSESVQSNSAVLVHFTLKLDDGTTAESTRNNGKPALFRLGDASLSEGLEQHLLGLKVGDKTTFSLEPDAAFGVPSPDLIQYFSRREFMDAGEPEIGAIMLFTAMDGSEMPGVIREINGDSITVDFNHPLAGQTVHFDIEVLEIDPALEA | soluble
EVLVTGYQTLSKERSTGAFSKVSTEKLELKRMDNLSSMLEGQVAGYVNGQIRGVTTMNAVANPMVVIDGFPVENTTLDRIGQTTENMPDLNPEDIESVTVLKDAAAASIYGARAANGVIVITTKKAK | not soluble
MSDHLGSSHDEGELSDESHKKSQRASSSDEPNPAKSNKGLESKMRESILSRLSKRKNSESDDDTTEQRFSIQPKNAQKAKEDRYRDKERDKKREKDKRDDRRDVRGPDARQKDRDFKGRQERSGRDQKVHEHRHHHHHRKHETDGHRTNRSNRDRSSERDSEKHKRHIDRHKKSSTTSPDNDKSPHKKSKHTDVPADAKLFDRILDPNYKKKDDDVLVIEDVEMSPIEILEEKEEKEIVEFTIDSPAGPKKYSKFESDPESDHDDTKPKSPGKAEDDDDVIEVLDDALHSDDDADSDEDKYLKTPEDREWEEMTETEQRLHKEAMKKRASMKQKTLIAQLPVFYPGLMGCRNIDEYECVNRVDEGTFGVVYRGKDKRTDEIVALKRLKMEKEKEGFPITALREINMLLKAGNHPNIVNVKEILLGSNMDKIYMAMEFVEHDMKSLLDTMSRRNKRFSIGEQKTLLQQLLSGIEHMHKLWILHRDLKTSNLLMSHKGILKIADFGLAREYGDPLKKFTSIVVTLWYRSPELLLGTRLYSTPVDMWSVGCIMAEFILLKPLFPGRGELEQIKKIFMEMGTPTESIWPGVTELDGWKALTFEKYPYNQLRKRFLAGRLLNDTGFKLLNGLLTLDPKNRFSATQALDHEWFTEEPYPVPPEEFPTFPAKSEQNKAPPPAKQKQQENRISHVDPETAKLLKQFEVRPEQVKPGGFSLKFDPTRF | not soluble
DPDQFRAIIESPEGAGHVGYQYRRNTGSTMRMVSDVLDERVSLWDFHCDPSGNVIQPGPNVDSRQYLQAAIDYVSSNGGGTITIPAGYTWYLGSYGVGGIAGHSGIIQLRSNVNLNIEGRIHLSPFFDLKPFQVFVGFDNGDPASSGNLENCHIYGHGVVDFGGYEFGASSQLRNGVAFGRSYNCSVTGITFQNGDVTWAITLGWNGYGSNCYVRKCRFINLVNSSVNADHSTVYVNCPYSGVESCYFSMSSSFARNIACSVELHQHDTFYRGSTVNGYCRGAYVVMHAAEAAGAGSYAYNMQVENNIAVIYGQFVILGSDVTATVSGHLNDVIVSGNIVSIGERAAFSAPFGAFIDIGPDNSGASNVQDIQRVLVTGNSFYAPANITDSAAITLRANLNGCTFIANNFDCRYMVYNAPGTTSPVVQNLVWDKSNVIGGTHANQRAGQNLFDMQFASVVNSTIEVQLSCEDLSMFSCILFPASCQLSYSKITVDSAWTKSMSNTAVFEGNQQAGANVYVSYPATVNLTSYNTQGAVPFFSTDTNYAWVTSAYSLSINENLDFSPPATYTNKANGQLVGVGYNEIGGVRSVSVRLMLQRQV | soluble
SLLCVVGGSMNVSMEASIVESLLQRRCLKESDLYRARQLQAESGVGLLPLLGRLGLVSERDHAEVCAEVMGLLLIQVRELPDTPPEFSAEVHGLSIRFLKQFHVCPLAEHDGVLQLCVADPFDVYAIEALRLATGAVLQLCIGLRSEIDDLVERWYGQGRS | soluble
